Assay results from patent US20230312686A1 (Bristol-Myers Squibb, published 2023).

Columns and labels:
[1] = molecular target: T1, Recombinant human glypican-3 (aa 1-559), His-tagged, R&D Systems (human, UniProt P51654 25-559); experiment: SPR, Biacore T100, 37 C, GPC3 immobilised, DAR1 AdxDC
T1 construct: also called huGPC3; Hu GPC3-His
Procedure: (§1) For off-rate measurements, single 200 nM adnectin/AdxDC concentrations were injected using identical conditions. One 30s injection of 10 mM glycine pH 1.7 was used to remove bound adnectin and regenerate the GPC3 surfaces between assay cycles.
(§2) Rate constants kₐ (kₒₙ) and kd (koff) were derived from reference-subtracted sensorgrams fit to a 1:1 binding model in Biacore T100 Evaluation Software v2.0.4 (GE Healthcare). The affinity constant, KD was calculated from the ratio of rate constants kd/kₐ.

[2] = molecular target: T2, Recombinant murine glypican-3 (aa 25-557), R&D Systems (murine, UniProt Q8CFZ4 25-557); experiment: as above
T2 construct: also called muGPC3; Mu GPC3-His
Procedure: as §1, §2

[3] = molecular target: T3, Human glypican-3 on cells (Huh7, Hep3B, H446, Hep3B xenograft tissue) (human, UniProt P51654 25-554); experiment: cell-based or functional assay
[4] = molecular target: T1, Recombinant human glypican-3 (aa …); experiment: SPR, as in the previous Examples
Procedure: as §1, §2
(§3) FITC Labeling: ADX_6077_F02 and non-binding control Adnectin were reduced with DTT or TCEP followed by G25 gel filtration chromatography or dialysis. Excess Fluorescein-5-maleimide reagent (Thermo Scientific) was then added and the mixture incubated at room temperature for approximately 2 hours followed by G25 gel filtration chromatography or extensive dialysis (3-4 buffer changes). The resulting degree of labeling was measured by absorbance following the manufacturer's instructions and/or by mass spectrometry. The binding affinities of FITC-labeled and PEGylated […] for human and murine GPC3 was evaluated as described in the previous Examples, and the results are summarized in Table 13.

[5] = molecular target: T2, Recombinant murine glypican-3 (aa …); experiment: SPR, as in the previous Examples
Procedure: as §1, §2, §3

[6] = molecular target: T1, Recombinant human glypican-3 (aa …); experiment: SPR, Biacore T100, GPC3-His immobilised, 1:1 fit
Procedure: (§4) The binding affinities of the alkylated GPC3 DG mutant adnectins for human and murine GPC3 were further evaluated by Biacore T100 using HBS-P+ running buffer with direct immobilization of human and mouse GPC3 proteins [Hu (Fc 2,3) and Mu (Fc 4) GPC3-His (R&D Systems)] with a 200-1.56 nM series injected for 180s association, 600s dissociation.

[7] = molecular target: T2, Recombinant murine glypican-3 (aa …); experiment: SPR, Biacore T100, GPC3-His immobilised, 1:1 fit
Procedure: as §4

[8] = molecular target: T3, Human glypican-3 on cells (Huh7, Hep3B, …); experiment: flow cytometry on Huh7 cells, alkylated Adnectin
[9] = molecular target: T3, Human glypican-3 on cells (Huh7, Hep3B, …); experiment: flow cytometry on Hep3B cells, His Tag PE antibody
Procedure: GPC3 AdxDC were evaluated by flow cytometry for binding to human Hep3B hepatocellular carcinoma cells grown in MEM with 10% FBS, and H446 small cell lung carcinoma cells grown in RPMI with 10% FBS. Cells were harvested using Cellstripper, a non-enzymatic cell dissociation solution from Mediatch (Corning: Manassas, VA 20109), Cat. #25-056-CL. Tumor cells (25,000/reaction) were suspended in FACS buffer (PBS+5% FBS+0.01% NaN₃) and mixed with a serial dilution of AdxDC for 1 hour on ice. Cells were washed three times with FACS buffer, and bound AdxDC was detected with His Tag PE-conjugated Antibody from R&D System, cat #IC050P, and read on a flow cytometer.

[10] = molecular target: T1, Recombinant human glypican-3 (aa …); experiment: SPR, 37 C
Procedure: as §1, §2

[11] = molecular target: T2, Recombinant murine glypican-3 (aa …); experiment: SPR, 37 C
Procedure: as §1, §2

[12] = molecular target: T3, Human glypican-3 on cells (Huh7, Hep3B, …); experiment: cell-based or functional assay; remark: listed apart in the source
[13] = molecular target: T1, Recombinant human glypican-3 (aa …); experiment: SPR 1-point off-rate, alkylated mutant vs parent
[14] = molecular target: T2, Recombinant murine glypican-3 (aa …); experiment: SPR 1-point off-rate, alkylated mutant vs parent
[15] = molecular target: T3, Human glypican-3 on cells (Huh7, Hep3B, …); experiment: flow cytometry on Huh7 cells
Procedure: (§5) The binding of DG variants to huGPC3 in DG GPC3 AdxDCs mutants were evaluated by flow cytometry for binding to Huh7 carcinoma cells grown in DMEM media with 10% FBS. Cells were harvested using Versene, an EDTA cell dissociation solution from Lonza, Cat. #17-711E. Tumor cells (1E5 cells/reaction) were suspended in FACS buffer (PBS, 1% BSA, 0.05% Na Azide) and mixed with a serial dilution of AdxDC for one hour on ice. Cells were washed three times with FACS buffer, and bound AdxDC was detected with an in house anti-scaffold monoclonal Ab and PE-conjugated Antibody from (RnD Systems), cat #NL007, and read on a flow cytometer.

[16] = molecular target: T3, Human glypican-3 on cells (Huh7, Hep3B, …); experiment: flow cytometry on Huh7 cells, unconjugated protein; Huh7 cells; unconjugated protein
Procedure: as §5

T2 sequence (Q8CFZ4 25-557 limits assumed, form in doubt): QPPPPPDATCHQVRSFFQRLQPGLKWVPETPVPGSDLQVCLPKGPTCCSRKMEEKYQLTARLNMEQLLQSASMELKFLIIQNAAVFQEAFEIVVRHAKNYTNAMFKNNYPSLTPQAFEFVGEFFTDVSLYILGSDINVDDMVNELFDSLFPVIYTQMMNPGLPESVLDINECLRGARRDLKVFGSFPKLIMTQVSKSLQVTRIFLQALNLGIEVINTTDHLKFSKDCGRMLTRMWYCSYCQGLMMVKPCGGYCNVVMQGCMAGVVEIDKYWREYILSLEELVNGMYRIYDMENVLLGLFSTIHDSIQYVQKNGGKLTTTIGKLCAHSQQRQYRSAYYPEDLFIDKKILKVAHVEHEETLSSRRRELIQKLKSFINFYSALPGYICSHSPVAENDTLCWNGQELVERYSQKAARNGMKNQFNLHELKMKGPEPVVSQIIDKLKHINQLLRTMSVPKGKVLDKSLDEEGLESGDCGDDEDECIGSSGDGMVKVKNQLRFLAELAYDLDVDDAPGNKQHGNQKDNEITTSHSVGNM
T1 sequence (P51654 other isoform, or with tags, fused parts or gaps): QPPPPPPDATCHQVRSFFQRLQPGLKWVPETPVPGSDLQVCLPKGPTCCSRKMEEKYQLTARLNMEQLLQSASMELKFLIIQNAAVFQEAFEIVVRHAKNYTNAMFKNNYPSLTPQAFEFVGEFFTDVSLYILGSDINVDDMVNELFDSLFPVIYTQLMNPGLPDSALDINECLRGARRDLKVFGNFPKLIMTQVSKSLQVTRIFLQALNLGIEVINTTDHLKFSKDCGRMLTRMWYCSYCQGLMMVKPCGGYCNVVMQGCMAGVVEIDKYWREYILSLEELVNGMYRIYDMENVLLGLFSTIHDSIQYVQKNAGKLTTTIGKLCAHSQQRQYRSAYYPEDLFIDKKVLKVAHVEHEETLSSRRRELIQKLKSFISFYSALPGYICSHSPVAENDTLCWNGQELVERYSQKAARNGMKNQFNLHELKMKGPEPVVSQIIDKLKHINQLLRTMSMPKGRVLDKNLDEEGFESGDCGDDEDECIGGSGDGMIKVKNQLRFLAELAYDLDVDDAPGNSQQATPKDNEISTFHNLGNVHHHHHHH
T3 sequence (P51654 25-554 limits assumed): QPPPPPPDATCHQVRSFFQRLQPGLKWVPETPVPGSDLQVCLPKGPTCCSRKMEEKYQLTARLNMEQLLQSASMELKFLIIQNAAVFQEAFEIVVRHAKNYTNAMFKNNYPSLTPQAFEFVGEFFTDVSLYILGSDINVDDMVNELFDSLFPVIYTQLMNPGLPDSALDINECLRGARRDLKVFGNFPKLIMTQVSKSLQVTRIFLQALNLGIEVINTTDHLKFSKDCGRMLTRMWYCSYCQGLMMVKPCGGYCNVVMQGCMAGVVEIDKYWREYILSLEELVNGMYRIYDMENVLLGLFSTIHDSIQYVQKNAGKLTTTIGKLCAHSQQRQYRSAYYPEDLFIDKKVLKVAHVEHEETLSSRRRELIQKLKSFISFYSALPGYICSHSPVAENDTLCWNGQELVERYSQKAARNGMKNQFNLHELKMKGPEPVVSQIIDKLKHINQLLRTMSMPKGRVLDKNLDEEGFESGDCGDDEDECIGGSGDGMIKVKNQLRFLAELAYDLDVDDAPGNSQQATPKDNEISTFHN

Binder	Fold affinity (KD) difference vs alkylated parent [6] [fold]	Kd [6] [nM]	koff [6] [s⁻¹]	kon [6] [M⁻¹ s⁻¹]	Fold affinity (KD) difference vs alkylated parent [7] [fold]	Kd [7] [nM]	koff [7] [s⁻¹]	kon [7] [M⁻¹ s⁻¹]	huGPC3 koff (mut/par) [13] [fold]	muGPC3 koff (mut/par) [14] [fold]	huGPC3 on cells EC50 (mutant/parent) [15] [fold]	also measured
ADX_6077_F02 DAR1 AdxDC (GPC3-tubulysin Adnectin drug conjugate) (designed binder, tubulysin analog-linker (formula IV) conjugated through its maleimide to the C-terminal cysteine (DAR1), also called GPC3 AdxDC DAR1; ADX_6077_F02-961) MGVSDVPRDLEVVAATPTSLLISWSDDYHAHRYYRITYGETGGNSPVQEFTVPGEHVTATISGLKPGVDYTITVYAVTYDGEKAATDWSISINYRTPCHHHHHH												Kd [1]: 12 nM; koff [1]: 0.00098 s⁻¹; Kd [2]: 11 nM; koff [2]: 0.00077 s⁻¹; AdxDC cell-killing IC50 [3]: 0.2 nM
ADX_6093_A01-961(DAR2) (designed binder, the two C-terminal cysteines each carry the tubulysin analog-linker of formula (IV) (Drug/linker (2x), DAR2), It is the DAR2 counterpart of m12) 10Fn3 domain: MGVSDVPRDLEVVAATPTSLLISWDAPAVTVRYYRITYGETGGNSPVQEFTVPGSKSTATISGLKPGVDYTITVYAVTGRGESPASSKPISINYRTPCPPPPPCHHHHHH												binding result [9]: no binding (tested: about 30 nM)
GPC3_AdxDC DA variant-DAR1 (designed binder, tubulysin analog-linker conjugated to the C-terminal cysteine (DAR1), also called DA variant AdxDC DAR1; GPC3_AdxDC (DA) DAR1) GVSDVPRDLEVVAATPTSLLISWSDDYHAHRYYRITYGETGGNSPVQEFTVPGEHVTATISGLKPGVDYTITVYAVTYDAEKAATDWSISINYRTPC												Kd [10]: 25 nM; koff [10]: 0.0021 s⁻¹; Kd [11]: 23 nM; koff [11]: 0.00095 s⁻¹; Cell-killing IC50 (Huh7) [12]: 0.2 nM
ADX_6077_F02 DG→DA mutant, alkylated (designed binder, C-terminal cysteine alkylated, also called P1-055660; PI-055660) GVSDVPRDLEVVAATPTSLLISWSDDYHAHRYYRITYGETGGNSPVQEFTVPGEHVTATISGLKPGVDYTITVYAVTYDAEKAATDWSISINYRTPC	4.5	25.4	0.00183	72200	4.3	16	0.0017	100000	3.9	3.7	1.3	
DA variant of ADX_6077_F02, unconjugated protein (designed binder, also called DA variant, unconjugated) GVSDVPRDLEVVAATPTSLLISWSDDYHAHRYYRITYGETGGNSPVQEFTVPGEHVTATISGLKPGVDYTITVYAVTYDAEKAATDWSISINYRTPC												EC50 [16]: 2.2 nM
ADX_6077_F02 DG→EG mutant, alkylated (designed binder, C-terminal cysteine alkylated, also called P1-055673) GVSDVPRDLEVVAATPTSLLISWSDDYHAHRYYRITYGETGGNSPVQEFTVPGEHVTATISGLKPGVDYTITVYAVTYEGEKAATDWSISINYRTPC	5.3	30	0.00229	76300	5.1	19	0.0021	110000	5.4	5.1	1.6	
ADX_6077_F02 DG→AG mutant, alkylated (designed binder, C-terminal cysteine alkylated, also called P1-055669) GVSDVPRDLEVVAATPTSLLISWSDDYHAHRYYRITYGETGGNSPVQEFTVPGEHVTATISGLKPGVDYTITVYAVTYAGEKAATDWSISINYRTPC	4.2	23.7	0.00243	103000	4	15	0.0021	140000	5.9	5.5	1.1	
ADX_6077_F02 DG→DL mutant, alkylated (designed binder, C-terminal cysteine alkylated, also called P1-055671) GVSDVPRDLEVVAATPTSLLISWSDDYHAHRYYRITYGETGGNSPVQEFTVPGEHVTATISGLKPGVDYTITVYAVTYDLEKAATDWSISINYRTPC	3.9	21.9	0.00159	72600	3.8	15	0.0015	100000	3.6	3.1	1.7	
ADX_6093_A01 alkylated (non-binding control) (designed binder, C-terminal cysteine alkylated with iodoacetamide) MGVSDVPRDLEVVAATPTSLLISWDAPAVTVRYYRITYGETGGNSPVQEFTVPGSKSTATISGLKPGVDYTITVYAVTGRGESPASSKPISINYRTPCHHHHHH												EC50 [8]: > 200 nM

The next lines start with results.

Fold affinity (KD) difference vs alkylated parent [6] [fold]	Kd [6] [nM]	koff [6] [s⁻¹]	kon [6] [M⁻¹ s⁻¹]	Fold affinity (KD) difference vs alkylated parent [7] [fold]	Kd [7] [nM]	koff [7] [s⁻¹]	kon [7] [M⁻¹ s⁻¹]	huGPC3 koff (mut/par) [13] [fold]	muGPC3 koff (mut/par) [14] [fold]	huGPC3 on cells EC50 (mutant/parent) [15] [fold]	Binder	also measured
1	5.6	0.000534	95300	1	3.8	0.00049	130000				ADX_6077_F02 alkylated (designed binder, C-terminal cysteine (of PC) alkylated with iodoacetamide, also called alkylated (capped) Adnectin; alkylated parent) MGVSDVPRDLEVVAATPTSLLISWSDDYHAHRYYRITYGETGGNSPVQEFTVPGEHVTATISGLKPGVDYTITVYAVTYDGEKAATDWSISINYRTPCHHHHHH	Kd [4]: 5.88 nM; koff [4]: 0.000524 s⁻¹; kon [4]: 89000 M⁻¹ s⁻¹; Kd [5]: 3.69 nM; koff [5]: 0.000453 s⁻¹; kon [5]: 123000 M⁻¹ s⁻¹; EC50 [8]: 5 nM
4.2	23.3	0.00166	71600	3.9	15	0.0015	100000	3.5	3.3	1.4	ADX_6077_F02 DG→DS mutant, alkylated (designed binder, C-terminal cysteine alkylated, also called P1-055667) GVSDVPRDLEVVAATPTSLLISWSDDYHAHRYYRITYGETGGNSPVQEFTVPGEHVTATISGLKPGVDYTITVYAVTYDSEKAATDWSISINYRTPC	
4.2	23.5	0.00221	94000	4.1	16	0.002	130000	5.2	4.8	1.1	ADX_6077_F02 DG→SG mutant, alkylated (designed binder, C-terminal cysteine alkylated, also called P1-055668) VSDVPRDLEVVAATPTSLLISWSDDYHAHRYYRITYGETGGNSPVQEFTVPGEHVTATISGLKPGVDYTITVYAVTYSGEKAATDWSISINYRTPC	
